Biological target: fluorescein-labeled UBE2D2 (WT) (human), P62837
Assay: fluorescence polarisation
Details: remark: other sources report otherwise

Sequence of fluorescein-labeled UBE2D2 (WT) (human), P62837 (P62837 whole entry): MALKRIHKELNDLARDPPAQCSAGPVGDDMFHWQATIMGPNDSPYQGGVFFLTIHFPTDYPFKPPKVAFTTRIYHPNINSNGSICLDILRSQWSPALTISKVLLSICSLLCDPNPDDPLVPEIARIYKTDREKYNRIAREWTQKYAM

B1: IpaH1.4 C-terminal domain, residues 265-575, A0A0H2USG1 265-575 (domain or fragment)
chain: GPQIFFSMGNSATISAPEHSLADAVTAWFPENKQSDVSQIWHAFEHEEHANTFSAFLDRLSDTVSARNTSGFREQVAAWLEKLSASAELRQQSFAVAADATESCEDRVALTWNNLRKTLLVHQASEGLFDNDTGALLSLGREMFRLEILEDIARDKVRTLHFVDEIEVYLAFQTMLAEKLQLSTAVKEMRFYGVSGVTANDLRTAEAMVRSREENEFTDWFSLWGPWHAVLKRTEADRWAQAEEQKYEMLENEYSQRVADRLKASGLSGDADAEREAGAQVMRETEQQIYRQLTDEVLALRLSENGSNHIA
Binder B1 has a Kd of 317 µM.

Reference: paper PMC2764551
